Experimental data from patent US20120141464A1 (ZENYTH OPERATIONS, published 2012).
Where a chain is given by its changes, count along the chain named.

T1: human GM-CSFRα (human, UniProt P15509 23-400)
T1 sequence: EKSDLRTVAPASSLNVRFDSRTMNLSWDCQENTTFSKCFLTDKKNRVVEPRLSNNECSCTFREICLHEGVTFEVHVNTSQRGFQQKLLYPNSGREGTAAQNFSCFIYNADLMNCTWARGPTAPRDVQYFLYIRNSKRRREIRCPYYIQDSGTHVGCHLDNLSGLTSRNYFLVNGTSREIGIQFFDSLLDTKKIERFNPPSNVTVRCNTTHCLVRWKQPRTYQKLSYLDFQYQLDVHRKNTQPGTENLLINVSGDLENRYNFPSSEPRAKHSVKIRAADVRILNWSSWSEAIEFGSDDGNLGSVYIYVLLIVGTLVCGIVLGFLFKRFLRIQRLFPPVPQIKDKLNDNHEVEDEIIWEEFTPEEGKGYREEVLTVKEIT

T2: recombinant purification-tagged human GM-CSF receptor α extracellular domain (human, UniProt P15509 23-320)
T2 construct: Amino acids 1 to 298 of the mature receptor; also called purified GM-CSFRα extracellular domain; soluble extracellular domain of GM-CSFRα; not shown: N-terminal purification tag; Flag-tagged
T2 sequence: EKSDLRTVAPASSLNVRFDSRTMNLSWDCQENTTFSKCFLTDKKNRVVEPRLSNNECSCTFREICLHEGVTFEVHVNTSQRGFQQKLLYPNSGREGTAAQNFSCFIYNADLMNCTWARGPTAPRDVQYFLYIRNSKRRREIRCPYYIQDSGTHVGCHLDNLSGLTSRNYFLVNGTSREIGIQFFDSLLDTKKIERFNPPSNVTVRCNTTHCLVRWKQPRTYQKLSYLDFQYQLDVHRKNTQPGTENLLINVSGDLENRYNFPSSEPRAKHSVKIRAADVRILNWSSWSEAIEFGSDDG

B1: Antibody 6 (as listed; germlining state in the experiment not stated) (antibody, V domains shown)
VH: QVQLVQSGAEVKKPGASVKVSCKVSGYTLTELSIHWVRQAPGKGLEWMGGFDPEENEIVYAQRFQGRVTMTEDTSTDTAYMELSSLRSEDTAVYYCAIVGSFSPLTLGLWGQGTMVTVSS
VL: QSVLTQPPSVSGAPGQRVTISCTGSGSNIGAPYDVSWYQQLPGTAPKLLIYHNNKRPSGVPDRFSGSKSGTSASLAITGLQAEDEADYYCATVEAGLSGSVFGGGTKLTVL
B2: Antibody 3 (28G5), parent antibody (antibody, V domains shown)
VH: QVQLVQSGAEVKKPGASVKVSCKISGHSLSELSIHWVRQTPTKGFEWMGGFDPEENEIVYAQRFQGRVTMTEDTSIDTAYLTLSSLRSDDTAVYYCSIVGSFSGWAFDYWGKGTMVTVSS
VL: QAVLTQPSSVSGAPGQRVTISCTGSGSNIGAPYDVSWYQQLPGTAPKLLIYHNNKRPSGVPDRFSASKSGTSASLAITGLQADDEADYYCQSYDSSLSGSVFGGGTKVTVL
B3: Antibody 2 (antibody, V domains shown)
VH: B2 VH with W105P, F107L, D108R, Y109P
VL: B2 VL
notes: also called Antibody 02; Ab2

Legend:
[1] = molecular target: cynomolgus GM-CSFRα (cynomolgus); experiment: cell-based or functional assay
[2] = molecular target: T1, human GM-CSFRα; experiment: cell-based or functional assay
[3] = molecular target: T1, human GM-CSFRα; experiment: cell-based or functional assay; remark: listed apart in the source
[4] = molecular target: T1, human GM-CSFRα; experiment: cell-based or functional assay; remark: listed apart in the source
[5] = molecular target: T1, human GM-CSFRα; experiment: cell-based or functional assay; remark: listed apart in the source
[6] = molecular target: T2, recombinant purification-tagged human …; experiment: SPR (BIAcore 2000); IgG4 captured on protein A, tagged receptor ECD as analyte; 1:1 Langmuir fit

| IC50, cynomolgus granulocyte shape change assay (7 pM human GM-CSF) [1] | IC50, colony formation assay (10 ng/ml human GM-CSF) [2] | IC50, cynomolgus granulocyte shape change assay [1] | IC50, human granulocyte shape change assay (7 pM human GM-CSF) [3] | IC50, TF-1 proliferation assay (7 pM human GM-CSF) [4] | IC50, monocyte TNFα release assay (1 nM human GM-CSF) [5] | Kd [6] | Binder |
| --- | --- | --- | --- | --- | --- | --- | --- |
| 1.73 pM | ~0.08 µg/mL | – | – | – | – | – | B1 |
| – | – | ~5 nM | – | – | – | – | B2 |
| 3.2 pM | – | – | 20.7 pM | 15 pM | 0.103 nM | 0.376 nM | B3 |
